Source: patent US20260242478A1 (published 2026)
Where no end group is shown, it is not given here.

biological target: T1, Anti-CD28 scFv (VH - linker 1 - VL) (biotinylated (site not stated)); assay: phage ELISA: biotinylated anti-CD28 scFv on neutravidin plate, clonal phage supernatant, anti-M13-HRP detection;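 note: competition format: before phage supernatant was added, wells were preincubated with soluble CD28 protein or with blocking buffer only, and phage were added without an intervening wash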
T1 construct: Captured as biotinylated scFv on neutravidin plates in the panning ELISA
T1 sequence (scFv, as listed by the source): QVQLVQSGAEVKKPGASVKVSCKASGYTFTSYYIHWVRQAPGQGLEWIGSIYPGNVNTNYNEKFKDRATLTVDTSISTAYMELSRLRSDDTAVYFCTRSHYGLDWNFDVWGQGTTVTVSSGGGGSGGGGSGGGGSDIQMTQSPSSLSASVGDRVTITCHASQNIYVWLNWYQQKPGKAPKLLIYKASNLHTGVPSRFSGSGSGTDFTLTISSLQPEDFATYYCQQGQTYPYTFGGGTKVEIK

Binder | CD28 scFv signal
MSWCPWDMWNECFA [Phage-403] | 1.52
MDWCPRDMWTSCFN [Phage-404] | 1.41
MDWCPMSMWAFCFD [Phage-405] | 1.41
MNWCPIDMWTECFN [Phage-406] | 1.4
MNWCPIHMWNQCFA [Phage-407] | 1.37
MFWCPKDMWAECFA [Phage-408] | 1.26
LHWCPITMWTYCYY [Phage-409] | 1.21
IDWCPRYMWHECFF [Phage-410] | 1.18
MSWCPRFMWHECFN [Phage-411] | 1.11
QHWCPRDMWNDCYA [Phage-412] | 1.08
MDWCPSDMWSNCFN [Phage-413] | 1.07
LYWCPRDMWAYCYS [Phage-414] | 1.02
MDWCPMYMWHKCFH [Phage-415] | 0.987

biological target: T2, Anti-CD28 scFv (VH - linker 1 - VL) (biotinylated (site not stated)); assay: phage ELISA; biotinylated anti-CD28 scFv on neutravidin plate, clonal phage supernatant, anti-M13-HRP;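 note: before the phage were added, wells were pre-incubated with soluble CD28 protein in blocking buffer, or with blocking buffer alone, and were not washed in between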
T2 construct: Biotinylated scFv captured on neutravidin coated plates in the panning ELISA
T2 sequence (scFv, as listed by the source): as above

Binder | CD28 scFv signal
MDWCPRSLWAQCFY [Phage-364] | 1.39
MDWCPSYLWPVCFN [Phage-365] | 1.18
MHWCPLYLWDECFY [Phage-366] | 1.16
MDWCPSFLWYECFN [Phage-367] | 1.13
MSWCPPYLWTVCYN [Phage-368] | 1.1
MHWCPRDLWYECFA [Phage-369] | 0.995
MTWCPAYLWHECFN [Phage-370] | 0.985
MDWCPRYLWVDCFA [Phage-372] | 0.917
MDWCPRILWSDCFN [Phage-373] | 0.847
MAWCPLDLWDKCFY [Phage-374] | 0.77
MNWCPRALWHECFL [Phage-375] | 0.759
MDWCPRHLWTYCFH [Phage-376] | 0.757
MDWCPFDLWLECFN [Phage-377] | 0.65
MHWCPLHLWNECFA [Phage-378] | 0.575
MDWCPRNLWAECFS [Phage-379] | 0.538
MDYCPSYLWHECFA [Phage-380] | 0.47

biological target: T3, Anti-CD28 scFv (VH - linker 1 - VL) (biotinylated (site not stated)); assay: phage ELISA; biotinylated anti-CD28 scFv on neutravidin plate, clonal phage supernatant, anti-M13-HRP detection;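 note: before phage addition, wells were pretreated with soluble CD28 protein in blocking buffer, or with blocking buffer only as the comparison, then phage were added without washing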
T3 construct: Biotinylated scFv captured on neutravidin coated plates in the panning ELISA
T3 sequence (scFv, as listed by the source): as above

Binder | CD28 scFv signal
MDWCPRYLWDYCFA (tested as crude phage supernatant) [Phage-280] | 2.71
MDWCPRSLWDYCFA (tested as crude phage supernatant) [Phage-294] | 2.49
MDWCPRSLWFLCFN (tested as crude phage supernatant) [Phage-281] | 2.71
MDWCPRDLWFACFA (tested as crude phage supernatant) [Phage-282] | 2.66
MDWCPRHLWNECFN (tested as crude phage supernatant) [Phage-283] | 2.65
MDWCPRHLWFECFN (tested as crude phage supernatant) [Phage-293] | 2.49
MDWCPRHLWFECFF (tested as crude phage supernatant) [Phage-300] | 2.45
MDWCPRHLWNECFA (tested as crude phage supernatant) [Phage-306] | 2.39
MDWCPRDLWAMCFA (cysteine pairing not given here; also: displayed on phage as fusion to pIII, tested as crude phage supernatant) [Phage-285] | 2.63
MERCPRYLWHMCYS (tested as crude phage supernatant) [Phage-286] | 2.59
MDWCPIALWDFCFA (tested as crude phage supernatant) [Phage-288] | 2.52
MDWCPRDLWSVCFS (tested as crude phage supernatant) [Phage-290] | 2.5
MDWCPRYLWHVCFY (tested as crude phage supernatant) [Phage-291] | 2.5
MDWCPRYLWHVCFD (tested as crude phage supernatant) [Phage-302] | 2.44
MDWCPRALWDHCFF (tested as crude phage supernatant) [Phage-292] | 2.49
MDWCPRYLWTECFS (tested as crude phage supernatant) [Phage-303] | 2.42
MDWCPRDLWTECFS (tested as crude phage supernatant) [Phage-305] | 2.4
MDWCPIYLWAECFN (tested as crude phage supernatant) [Phage-299] | 2.45
MDWCPRYLWHECFF (tested as crude phage supernatant) [Phage-301] | 2.45
MDWCPKFLWDECFA (tested as crude phage supernatant) [Phage-304] | 2.41
MDWCPRYLWPVCFH (tested as crude phage supernatant) [Phage-307] | 2.39
MDWCPKSLWAECFN (tested as crude phage supernatant) [Phage-308] | 2.38
MDWCPMFLWHECFN (tested as crude phage supernatant) [Phage-309] | 2.38

biological target: T2, Anti-CD28 scFv (VH - linker 1 - VL); assay: phage ELISA as above, wells pre-incubated with soluble CD28 (competitor);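 note: ELISA of crude clonal phage supernatants added to wells pre-treated with soluble CD28 in blocking buffer, bound phage read out with HRP-conjugated anti-M13 antibody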
Description: (§1) Clonal phage were harvested as crude supernatants and screened via standard enzyme linked immunosorbent assays (ELISAs). […] Prior to the addition of clonal phage, wells were incubated with blocking buffer and CD28 soluble protein or blocking buffer alone. Without washing or aspirating, clonal phage supernatants were then added to the wells and incubated for a short time. Wells were then washed followed by detection of bound phage using a horse radish peroxidase conjugated anti-M13 antibody.

Binder | CD28 scFv signal in presence of CD28
MDWCPRSLWAQCFY [Phage-364] | 0.14
MDWCPSYLWPVCFN [Phage-365] | 0.131
MHWCPLYLWDECFY [Phage-366] | 0.376
MDWCPSFLWYECFN [Phage-367] | 0.104
MSWCPPYLWTVCYN [Phage-368] | 0.326
MHWCPRDLWYECFA [Phage-369] | 0.108
MTWCPAYLWHECFN [Phage-370] | 0.139
MDWCPRYLWVDCFA [Phage-372] | 0.218
MDWCPRILWSDCFN [Phage-373] | 0.113
MAWCPLDLWDKCFY [Phage-374] | 0.141
MNWCPRALWHECFL [Phage-375] | 0.107
MDWCPRHLWTYCFH [Phage-376] | 0.207
MDWCPFDLWLECFN [Phage-377] | 0.12
MHWCPLHLWNECFA [Phage-378] | 0.083
MDWCPRNLWAECFS [Phage-379] | 0.08
MDYCPSYLWHECFA [Phage-380] | 0.09

biological target: T1, Anti-CD28 scFv (VH - linker 1 - VL); assay: as above
Description: as §1

Binder | CD28 scFv signal in presence of CD28
MSWCPWDMWNECFA [Phage-403] | 0.108
MDWCPRDMWTSCFN [Phage-404] | 0.179
MDWCPMSMWAFCFD [Phage-405] | 0.16
MNWCPIDMWTECFN [Phage-406] | 0.175
MNWCPIHMWNQCFA [Phage-407] | 0.133
MFWCPKDMWAECFA [Phage-408] | 0.113
LHWCPITMWTYCYY [Phage-409] | 0.516
IDWCPRYMWHECFF [Phage-410] | 0.164
MSWCPRFMWHECFN [Phage-411] | 0.246
QHWCPRDMWNDCYA [Phage-412] | 0.149
MDWCPSDMWSNCFN [Phage-413] | 0.121
LYWCPRDMWAYCYS [Phage-414] | 0.157
MDWCPMYMWHKCFH [Phage-415] | 0.168

biological target: T3, Anti-CD28 scFv (VH - linker 1 - VL); assay: phage ELISA; biotinylated anti-CD28 scFv on neutravidin plate, wells pre-incubated with soluble CD28 (competitor), anti-M13-HRP detection;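 note: bound clonal phage detected by peroxidase-labelled anti-M13 antibody, compared against wells given blocking buffer alone without soluble CD28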
Description: as §1

Binder | CD28 scFv signal in presence of CD28
MDWCPRYLWDYCFA (tested as crude phage supernatant) [Phage-280] | 0.382
MDWCPRSLWDYCFA (tested as crude phage supernatant) [Phage-294] | 0.235
MDWCPRSLWFLCFN (tested as crude phage supernatant) [Phage-281] | 1.77
MDWCPRDLWFACFA (tested as crude phage supernatant) [Phage-282] | 0.794
MDWCPRHLWNECFN (tested as crude phage supernatant) [Phage-283] | 0.393
MDWCPRHLWFECFN (tested as crude phage supernatant) [Phage-293] | 0.171
MDWCPRHLWFECFF (tested as crude phage supernatant) [Phage-300] | 0.479
MDWCPRHLWNECFA (tested as crude phage supernatant) [Phage-306] | 0.17
MDWCPRDLWAMCFA (cysteine pairing not given here; also: displayed on phage as fusion to pIII, tested as crude phage supernatant) [Phage-285] | 0.889
MERCPRYLWHMCYS (tested as crude phage supernatant) [Phage-286] | 0.84
MDWCPIALWDFCFA (tested as crude phage supernatant) [Phage-288] | 0.492
MDWCPRDLWSVCFS (tested as crude phage supernatant) [Phage-290] | 0.116
MDWCPRYLWHVCFY (tested as crude phage supernatant) [Phage-291] | 1.14
MDWCPRYLWHVCFD (tested as crude phage supernatant) [Phage-302] | 0.31
MDWCPRALWDHCFF (tested as crude phage supernatant) [Phage-292] | 0.394
MDWCPRYLWTECFS (tested as crude phage supernatant) [Phage-303] | 0.329
MDWCPRDLWTECFS (tested as crude phage supernatant) [Phage-305] | 0.174
MDWCPIYLWAECFN (tested as crude phage supernatant) [Phage-299] | 0.307
MDWCPRYLWHECFF (tested as crude phage supernatant) [Phage-301] | 0.682
MDWCPKFLWDECFA (tested as crude phage supernatant) [Phage-304] | 0.376
MDWCPRYLWPVCFH (tested as crude phage supernatant) [Phage-307] | 0.602
MDWCPKSLWAECFN (tested as crude phage supernatant) [Phage-308] | 0.162
MDWCPMFLWHECFN (tested as crude phage supernatant) [Phage-309] | 0.591
